Publication PMC12381204

How the values were obtained:
[1] = molecular target: Phosphorylated SARS-CoV-2 Nucleocapsid protein (pN), full length, phosphorylated in vitro with GSK-3β and SRPK1 (SARS-CoV-2) (UniProt P0DTC9); test: […]; 20 mM Tris-HCl, 150 mM NaCl, pH 7.5, 37 °C
[2] = molecular target: SARS-CoV-2 Nucleocapsid protein (N), full length, unmodified (SARS-CoV-2) (UniProt P0DTC9); test: […]; 20 mM Tris-HCl, 150 mM NaCl, pH 7.5, 37 °C
[3] = molecular target: Membrane (M) protein C-terminal endodomain, 104-222 (UniProt P0DTC5)
[4] = molecular target: non-structural protein 3 (Nsp3) ubiquitin-like domain 1 (Ubl1), 1-111

Row | Substance | partition coefficient [1] | partition coefficient [2] | other: partition coefficient [3] | other: partition coefficient [4]
1 | 6xHis-GFP-M^104-222, C-terminal endodomain of the SARS-CoV-2 Membrane (M) protein (from UniProt P0DTC5 104-222) (domain or fragment) | 0.3 | 9.8 | – | –
2 | Nucleocapsid protein (N) (from UniProt P0DTC9) | – | – | lost; reference 9.8 ± 0.3 | weaker; reference 12.6 ± 0.1
3 | 6xHis-GFP-Nsp3^1-111, ubiquitin-like domain 1 (Ubl1) of SARS-CoV-2 non-structural protein 3 (Nsp3) (domain or fragment) | 2.2 | 12.6 | – | –
